Changes are numbered by the printed parent chain.
T1: recombinant human CEACAM-1/CD66a protein (R&D systems; Cat. No. 2244-CM) (human, UniProt P13688 35-428)
T1 construct: Bought protein; captured on anti-His (His1K) biosensors in the Octet assay, so it carries a His tag; also called HCCM1; recombinant CEACAM-1/CD66a protein
T1 sequence (looked up): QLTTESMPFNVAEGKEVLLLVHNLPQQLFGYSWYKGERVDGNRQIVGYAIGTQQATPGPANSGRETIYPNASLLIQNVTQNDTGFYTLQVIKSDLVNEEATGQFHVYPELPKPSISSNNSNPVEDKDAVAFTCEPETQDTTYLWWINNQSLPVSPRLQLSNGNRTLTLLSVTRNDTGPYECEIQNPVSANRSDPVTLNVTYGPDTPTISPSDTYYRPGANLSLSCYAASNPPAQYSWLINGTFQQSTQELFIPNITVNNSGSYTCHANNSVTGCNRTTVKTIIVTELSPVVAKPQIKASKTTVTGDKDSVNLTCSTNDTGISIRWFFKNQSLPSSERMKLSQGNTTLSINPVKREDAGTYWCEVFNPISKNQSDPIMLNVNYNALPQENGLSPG

T2: recombinant human CEACAM-1/CD66a protein Bulk (R&D systems; Cat. No. 2244-CM) (human, UniProt P13688 35-428)
T2 construct: Same catalogue number as HCCM1, coated as a separate antigen ('bulk'); also called HCCM1 (bulk)
T2 sequence (looked up): T1 sequence (looked up)

T3: recombinant human CEACAM-3/CD66d protein (Sino Biological; Cat. No. 11933-H08H) (human, UniProt P40198 35-155)
T3 construct: Bought protein; also called HCCM3
T3 sequence (looked up): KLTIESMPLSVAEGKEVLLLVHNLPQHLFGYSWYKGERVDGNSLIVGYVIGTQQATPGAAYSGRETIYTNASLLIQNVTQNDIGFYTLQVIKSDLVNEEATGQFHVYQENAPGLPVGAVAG

T4: recombinant human CEACAM-5/CD66e protein (R&D systems; Cat. No. 4128-CM) (human, UniProt P06731 35-685)
T4 construct: Bought protein; also called HCCM5
T4 sequence (looked up): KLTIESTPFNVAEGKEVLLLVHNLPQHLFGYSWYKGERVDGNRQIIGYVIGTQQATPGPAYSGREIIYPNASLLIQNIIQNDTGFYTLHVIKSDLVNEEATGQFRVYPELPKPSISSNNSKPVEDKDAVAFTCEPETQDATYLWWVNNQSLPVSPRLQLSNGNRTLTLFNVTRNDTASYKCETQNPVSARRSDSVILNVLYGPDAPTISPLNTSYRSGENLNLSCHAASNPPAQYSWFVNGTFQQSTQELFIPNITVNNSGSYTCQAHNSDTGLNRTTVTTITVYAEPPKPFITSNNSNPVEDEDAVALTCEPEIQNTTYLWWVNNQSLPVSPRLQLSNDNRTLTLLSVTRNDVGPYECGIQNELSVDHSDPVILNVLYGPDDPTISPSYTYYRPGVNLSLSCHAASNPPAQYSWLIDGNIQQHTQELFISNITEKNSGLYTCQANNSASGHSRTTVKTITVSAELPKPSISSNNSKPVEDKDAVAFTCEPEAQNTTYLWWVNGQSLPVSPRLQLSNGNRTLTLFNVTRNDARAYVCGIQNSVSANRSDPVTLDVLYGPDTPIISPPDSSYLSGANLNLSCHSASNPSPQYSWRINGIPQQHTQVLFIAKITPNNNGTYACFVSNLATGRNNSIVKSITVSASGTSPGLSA

B1: C25 (antibody, human IgG4 S228P, lambda, V domains shown)
VH: EVQLLESGGGLVQPGGSLRLSCAASGFTFSNYAMSWVRQAPGKGLEWVSVISHGGGSIYYADSVKGRLTISRDNSKNTLYLQMNSLRAEDTAVYYCARDPTKGYAPTFDYWGQGTLVTVSS
VL: QSVLTQPPSASGTPGQRVTISCSGSSSNIGNNYVSWYQQLPGTAPKLLIYADSKRPSGVPDRFSGSKSGTSASLAISGLRSEDEADYYCGAWDASLNGYVFGGGTKLTVLG
notes: Made in ExpiHEK293F cells, protein A purified. huIgG4 is the isotype control and anti-huIgG4 the detection reagent; the isotype is not otherwise stated; also called anti-CEACAM1 antibody C25
B2: 4R9 (antibody, human IgG4 S228P, lambda, V domains shown)
VH: B1 VH
VL: B1 VL with K54R, A94L
notes: also called C25-derived clone 4R9
B3: 4R26 (antibody, human IgG4 S228P, lambda, V domains shown)
VH: B1 VH
VL: B1 VL with P56L, A94G, S95R
notes: also called C25-derived clone 4R26
B4: 4R9_H4-n20 (antibody, human IgG4 S228P, lambda, V domains shown)
VH: B1 VH with T28N
VL: B1 VL with K54R, A94L
notes: also called C25-derived clone 4R9_H4-n20
B5: 4R9_H2-2 (antibody, human IgG4 S228P, lambda, V domains shown)
VH: B1 VH with T107L
VL: B1 VL with K54R, A94L
notes: also called C25-derived clone 4R9_H2-2
B6: C15 (antibody, human IgG4 S228P, lambda, V domains shown)
VH: EVQLLESGGGLVQPGGSLRLSCAASGFTFSSYSMSWVRQAPGKGLEWVSSISPNGGNKYYADSVKGRFTISRDNSKNTLYLQMNSLGAEDTAVYYCAKDPYNIYQPLFDYWGQGTLVTVSS
VL: B1 VL with P8L, S35N, D52N, K54N, D83E, A91T, N97S, G98A
B7: C19 (antibody, human IgG4 S228P, lambda, V domains shown)
VH: EVQLLESGGGLVQPGGSLRLSCAASGFTFSGYAMSWVRQAPGKGLEWVSGIYHDGGSTYYADSVKGRFTISRDNSKNTLYLQMNSLRAEDTAVYYCARVTVLCTTYGCSSYDGMDVWGQGTLVTVSS
VL: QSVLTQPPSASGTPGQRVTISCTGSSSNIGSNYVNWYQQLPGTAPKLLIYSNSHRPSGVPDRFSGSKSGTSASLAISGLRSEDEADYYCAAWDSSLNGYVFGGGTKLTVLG
B8: C18 (antibody, human IgG4 S228P, lambda, V domains shown)
VH: EVQLLESGGGLVQPGGSLRLSCAASGFTFSNYDMSWVRQAPGKGLEWVSGISHSSGSKYYADSVKGRFTISRDNSKNTLYLQMNSLRAEDTAVYYCARDPLPCLIPKCSYYYAMDVWGQGTLVTVSS
VL: B1 VL with S11P, N31S, Y33A, S35T, K54H, A91S, A94D, G98A
B9: C17 (antibody, human IgG4 S228P, lambda, V domains shown)
VH: EVQLLESGGGLVQPGGSLRLSCAASGFTFSDYSMSWVRQAPGKGLEWVSVIYPDDGNTYYADSVKGRFTISRDNSKNTLYLQMNSLRAEDTAVYYCARGSIWWLSLIPSSYNAMDVWGQGTLVAVSS
VL: B1 VL with Y33A, S35N, D52N, K54H
B10: C22 (antibody, human IgG4 S228P, lambda, V domains shown)
VH: EVQLLESGGGLVQPGGSLRLSCAASGFTFSDYDMSWVRQAPGKGLEWVSMIYSGSSSKYYADSVKGRFTISRDNSKNTLYLQMNSLRAEDTAVYYCAKAPLPFYFRPKSYYYAMDVWGQGTLVTVSS
VL: B1 VL with N31S, Y33N, S35T, D52N, K54H, A91S, A94S, G98A
B11: C26 (antibody, human IgG4 S228P, lambda, V domains shown)
VH: EVQLLESGGGLVQPGGSLRLSCAASGFTFSGYDMSWVRQAPGKGLEWVSWISYGGGSIYYADSVKGRFTISRDNSKNTLYLQMNSLRAEDTAVYYCAKDRLPQKAVRHSYANGMDVWGQGTLVTVSS
VL: B1 VL with S35T, K54H, A94Y, N97S

target: T1, recombinant human CEACAM-1/CD66a …; assay: Octet QKe biolayer interferometry, anti-His (HIS1K) biosensors, antibody 6.25-400 nM
Method: The last well in each row was with a sample at the antibody concentration of 0 nM. Recombinant human CEACAM1 protein (R&D Systems; Cat. No. 2244-CM) was diluted to obtain a concentration of […], and dispensed into each well of another column at 200 μl/well.
As for the washing buffer, neutralization buffer and baseline buffer, Reagent/Kinetics buffer (10×) (Fortebio; Cat. No. 18-1092) were 1:10 diluted and dispensed into each well of a column in a row at 200 μl/well, and the regeneration buffer was dispensed into each well at 200 μl/well. Greiner 96-well plate was separately prepared, Reagent/Kinetics buffer (1×) was dispensed into each well of the number of biosensors to be used in a row at 200 μl/well, and Biosensors/Anti-His (His1K) (Fortebio; Cat. No. 18-5120) cassette was installed.

Kd [nM] | koff [s⁻¹] | kon [M⁻¹ s⁻¹] | Binder
34.9 | 0.000505 | 18200 | B1
3.39 | 0.000567 | 163000 | B2
1.82 | 0.000266 | 133000 | B3
39 | 0.000333 | 26100 | B4
3.54 | 0.000627 | 169000 | B5

target: T2, recombinant human CEACAM-1/CD66a …; assay: ELISA, coated antigen, anti-human IgG Fab-HRP

binding result | Binder
binds | B6
binds | B7
binds | B8
binds | B9
binds | B10

target: T3, recombinant human CEACAM-3/CD66d …; assay: ELISA on coated antigen (0.25 µg/ml), HRP anti-human IgG Fab, OD450
Text: (§1) All of the recombinant human CEACAM-1/CD66a protein (R&D systems; Cat. No. 2244-CM, HCCM1), recombinant human CEACAM-5/CD66e protein (R&D systems; Cat. No. 4128-CM, HCCM5), recombinant human CEACAM-6/CD66c protein (R&D systems; Cat. No. 3934-CM, HCCM6), recombinant human CEACAM-3/CD66d protein (Sino Biological; Cat. No. 11933-H08H, HCCM3), recombinant mouse PD-1 Fc chimeric protein (R&D systems; Cat. No. 1021-PD, mPD-1-Fc), recombinant CEACAM1-Fc (IgG4) protein (Mogam, in-house production, HCCM1-Fc), recombinant human CEACAM-1/CD66a protein Bulk (R&D systems; Cat. No. 2244-CM, HCCM1 (bulk)) and mouse CEACAM1/CD66a protein (Sino Biological; Cat. No. 50571-M08H, mouse CCM1) (2.5 μg each) were dissolved in 10 ml of PBS, respectively and dispensed into a 96-well plate (Nunc; Cat. No. 467679) at 100 μl/well, which was incubated overnight at 4° C. Thereafter, each well was treated with 300 μl of 1% (v/v) bovine serum albumin, which was incubated at 37° C. for 1 hour.
(§2) The diluted antibodies were dispensed into each well coated with each protein at 100 μl/well, which was incubated at 37° C. for 1 hour. Then, each well was washed 3 times with a washing buffer prepared by diluting 10 μl of Tween 20 (Sigma-Aldrich; Cat. No. P9146) in 990 μl of PBS. Thereafter, 2 μl of HRP-conjugated human anti-IgG-Fab antibody (anti-human IgG Fab; Sigma; Cat. No. A0293) was diluted in 10 ml of PBS, added to the wells at 100 μl/well, and incubated for 1 hour.
(§3) After completion of the reaction, the wells were washed three times with the washing buffer, and 100 μl of TMB solution was added to each well to induce color development. Then, 100 μl of 2 M H₂SO₄ was added to each well to stop the reaction, and the absorbance was measured at a wavelength of 450 nm.

Binder | binding result
B7 | no binding (tested: 3 µg/ml (single concentration))
B11 | no binding (tested: 3 µg/ml (single concentration))
B1 | no binding (tested: 3 µg/ml (single concentration))

target: T4, recombinant human CEACAM-5/CD66e …; assay: as above
Text: as §1, §2, §3

Binder | binding result
B6 | no binding (tested: 3 µg/ml (single concentration))
B8 | no binding (tested: 3 µg/ml (single concentration))
B11 | no binding (tested: 3 µg/ml (single concentration))
B1 | no binding (tested: 3 µg/ml (single concentration))

— US20200109196A1 (MOGAM INSTITUTE FOR BIOMEDICAL RESEARCH, published 2020)
